Measured values published in the nanobody polyreactivity screen of Harvey et al. (2022).

Test: yeast display, Sf9 membrane polyspecificity reagent, FACS + sequencing; frameworks hold sequencing errors
In short: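 Sorting gates, low and high (top ~1%), were placed on anti-HA fluorescence to track expression and on streptavidin fluorescence to track reagent binding. A clone's polyreactivity label is taken from the gate it came out of. The reagent was 10% biotinylated, detergent-solubilized Sf9 membrane, applied for 1 hour at 4 °C to galactose-induced yeast display cells.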

| Sequence | polyreactivity (PSR sort gate) |
| --- | --- |
| LVQLVESGGGLVQAGGSLRLSCAASGNTFVSNAMGWYRQAPGKERELVAAIDSGGSTNYADSVKGRFTISRDNAKNTVYLQMNSLKPDDTAVYYCTRTSVYYYYWGQGTQVTVSS | low polyreactivity |
| LVQLVESGGGLVQAGGSLRLSCAASGRIFVGYAMGWFRQAPGKERELVAAISRRAGRTYYADSVKGRFTLSRDNAKNTVYLQMNSLKPEDTPVYYCIAPRYYPKAGFDYWGQGTQVTVSS | high polyreactivity |
| LVQLVESGGGLVQAGGSLRLSCAASGYIIGFYVMGWYRQAPGKERELVAVIDYGSDNTYYADSVLGRYTISRDNAKNTVYLQMNSLKPEETAVYYCAAEWYKSNYYDYDTWGQGTQVTVSS | high polyreactivity |
| LVQLVESRGGLVQAGGSLRLSCAASGRTFAWYAMGWYRPAPGKERELVAAISNVGSTYYADTVKGRFTISRDNAKNTVYLQMNSLKPEDTAVYYCNPDAVSTDGREYWGQGTQVTVSS | low polyreactivity |
| LVQLVETGGGLVQAGGSLRLSCAASGSVFYSYAMGWYRQAPGKERELVAAISFSGGSTYYADSVKGRFTISRDNAKNTVYLQMNSLKPEDTAVYYCNTLSADTFDYWGQGTQVTVSS | low polyreactivity |
| LVQLVQSGGGLVQAGGSLRLSCAASGRTFIGYAMGWYRQAPGKERELVAAITSDGGTNYADSVKGRFTISRDNAKNTVNLLMNSLKPEDTAVYDCAARRRVSYHLYGYWGQGTQVTVSS | high polyreactivity |
| NVQLVESGGGLVQAGGSLRLSCAASGSTFDYYDMGWYRQAPWKERELVATITSGGSTNYADSVKGRFTITRDNAKNTVYLLMHSLKPEDTAVYYCDARIRSVVPFDMDYWGQGTQVTVSW | low polyreactivity |
| PDQLVESGGGLVQAGGSLRLSCAASGFIFTYYAMGWYRQAPGKERELVAAITRRGGSTYYADSVKGRFTISRDNAKNTVYLQMNRLKPEDTAVYYCNKVDQGRYGYWGQGTQVTVSS | high polyreactivity |
| PLQLVESGGGLVQAGGSLRLSGAASGIIFNQYPMGWYRQAPGKEREFVPAISSSGGSTYYADSVKGRFTISRDYAKNTVYLQMNSLKPADTAVYFCSADSPGWTYTSRSYDYWGQGTQVTLSS | low polyreactivity |
| PVQLEESGGGLDQAGGSLRISCAASGRIFWAKAMGWYRQAPGKERELVAAINRRTGITYYADSVKGRFTISRDNAKNTVYFQMNSLKPEDTAVYYCAADWRTKCYDSLGQGTQVTVSS | high polyreactivity |
| PVQLQQSGSGLVQAGGSLRLSCAASGYISLGDNKGWYRQAPGKEREFDATISVGGITYYVDSVKGPFTISRDIAKNTVYLQMNSVKPEDTAVYYCAALDIYYLRYYYWGQGTQVTLSS | low polyreactivity |
| PVQLVESGGGLGQAGGSLRLSCAASGIIFNDYAMGWYRQAPGKERELVASIRSNTGSTNYADSVKGRFTISRDYAKNTVYLPMNSLKPEETAVSDCAADYLPDYGPRGGYWGQGTQVTVSS | low polyreactivity |
| PVQLVESGGGLGQAGGSLRLSCAASGLTFGRYAMGWYRQAPGKERELVAAITRSGGRTYYADSVKGRFTISRDNAKNTVYLQMNSLKPEDTAVYYCNTRSHLGAPGDPDDYWGQGTQVTVTS | high polyreactivity |
| PVQLVESGGGLGQAGGSLRLSCAASGRIFYLYAMGWYRQAPGKERELVATIDSSGDSTFYADSVKGRFTISRDNAKNTVYLQMNSLKPEDTAVYNCAADEVSSYDYGYKGRYDYWGQGTQVTVSS | low polyreactivity |
| PVQLVESGGGLVQAGGSLRLSCAASGRTFGYNAMGWYRQAPGKERELVASISYRGGSTYYADSVKGRFTISRDNAKNTVYLQMNSLKPEDTAVYYCNKYYVWREYYWGQGTQVNVSS | high polyreactivity |
| PVQLVESGGGLVQAGGSLRLSCAASGRTFYKYAMGWYRQAPGKERELVAAISKSGGRTYYADSVKGRFTISRDNAKNTVYLQMNSLKPEDTAVYYCAAEPFIPDQSRYYYWGQGTQVTVSS | high polyreactivity |
| PVQLVESGGGLVQAGGSLRLSCAASGRTVWNTMGWDRQSPGNERELVAAISYSGGTTYYADSVKGRFTISRDNAKNTVYLQMNSLKPEDTAVYYCNAVTYGWTAYYKGKRYDYWGQGTQVTVSS | high polyreactivity |
| PVQLVESGGGLVQAGGSLRLSCAASGSTFDAYDLGWYRQAPGKERELVAAINWSGGITYYADSVKGRFTISRDNAKNTVYLQMNSLKPEDTAVYYCNADASFYSRVNYWGQGTQVTVSS | high polyreactivity |
| PVQLVESGGGLVQAGGSLRLSCAASGSTSSYYAMGWYRQAPGKERELVAAIRTSGRTYYADSVKGRFTISRDNAKNTVYLQMNSLQPEDTAVYYCNAGYVSPDYDSWGQGTHVTVSS | high polyreactivity |
| PVQLVESGGGLVQAGGSLSLTCAASGSIFPYYTMRWYRPAPGKERELVATITGNGGSTYADSGKGRFTISRDNAKNTVYLQMNSLKPEDTAVYYCAVYGDSYWGAYYYSDGYWGQGTQVTVSS | low polyreactivity |
| PVQLVESRGRLVQAGGSLRLSCAASGSIFGYNAMGWYRQAPGKERELVAAISYSGASTYYSDSVKGRFTISRDNAKNTVYLQLNSLKPEDTAVYYCAAGWKRFSGRNHYYWGLGTQVTVSS | high polyreactivity |
| PVQLVESWGGLDQAGGSLRLICAPSGSIFSVYAMGWYRQAPGKERELVAAISWSGGSTYYADSVKGRFTISRDNAKNTVYLQLNSLKPEDTAVYYCNAKHLPRHRDYWGQGTQVTVSS | low polyreactivity |

| Sequence | polyreactivity (PSR sort gate) |
| --- | --- |
| QAQLQESGGSLVQAGGGLRLSCAASGYISVGSVMGWYRQAPSKERELGASIDQGANTNYADSVKGRFTISRDNAKNNVYLQMNSLKPEDTAVYYCATETTYILNYWGQGTQVTVSS | low polyreactivity |
| QAQLQESGGSLVQAGGGLRLSCAASGYISVGSVMGWYRQAPSKERELVASIDQGANTNYADSVNGRFTISRDNAKNKESLQMNSLKPEDTAVYYCATETTYIVIYWGQGTQVTVSS | low polyreactivity |
| QDHIVESGGGLVQAGGSLRLSCAASGSTFKLYAMGWYRQAPGKERELVAAITRSGTRTYYADSVKGRFTISRDNAKNTVYLQMNILKPEDTAVYYCAADGYRISGYDYWGQGTQVTVSS | high polyreactivity |
| QDHLVESGGGLDQAGGSLRLSCAASGRILGDYAMGWYRQAPGKEREFVAAIDYNGGSTNYADSVKGRFTISRDNAKNTVYLQMNSLKPEDTAVYYCAAPGFPSRNGFGYWGQGTQVTVSS | low polyreactivity |
| QDHLVESGGGLVQAGGSLRLSCAASGGIFYGYAMGWYRQAPGKERELVAAISTSDASTYYADSVKGRFTFSRDNAKNTVFVQMNSLKPEATAVYYCATDLPDGYDYWGQGTQVTVSS | low polyreactivity |
| QDHLVESGGGLVQAGGSLRLSCAASGISFWFNAMGWYRQAPGKEREWVGAITSGVDTNYADSVKGRFTISRDNAKNTVYLQMNSLKPEDTAVNYSAAQGGRLKRGSTTSDYWGQGTQVTVSS | low polyreactivity |
| QDHLVESGGGLVQAGGSLRLSCSASGRTFGTYAMGWYRQAPGKERELVATISSGGSTYYADSVKGRFTISRDNAKNTGYLQMNSLKPEDTAVYYCADYRYFRPGDYWGQGTQVTVSS | low polyreactivity |
| QDLLVDSGGGLLQAGGSLRLSCAASGSIFYTNTMGWYRHAPGKERALVAAISYSDSTTYYADSVKGRFTISRDNAKNSVYLQMNSLKPEDTAVYYCAAQQFYTYYQTYDYWGQGTQVTVSS | high polyreactivity |
| QDQHGDSGGGLVQAGGSLRLSCSASGFTITYNTMGWYRQAPGKERELVATITAGDGSTYYADSVKGRFTISRDNAKNTVYFQMNSLKPEDTAVYYCAADAYYYYAGGHYYWGQGTQVTVSS | low polyreactivity |
| QDQHVESEVGLVQAGGSLRLSCAASGSTVYPYAKGWYRKAPGKERELDAAISSGGSTYYADSVKGRFTISRDNAKNTVYLQMNSLKPEDTAVYYCAADFYYAYYWGQGSQVTVSS | low polyreactivity |
| QDQHVESGGCLVQAGGSRRLSCAASGSILGAYTMGCYRQAQGKERELVAAITRRGGSTYYADSVKGRFTISRDNAKNTVYLQMNSLKPEDTAVYYWNAEYGVWYDYLVVPYDYWGQGTQVTVSS | low polyreactivity |
| QDQHVESGGGLVQAGASLRLSCSASGRIFRRYAMGWYRQAPGKERELVAAISWSGGTTYYADSVKGRFTISRDNAKNTVYLQINSLKPEDTAVYYCAKLYSSVTTTYPYGLPRYDSWGQGTQVTLSS | high polyreactivity |
| QDQHVESGGGLVQAGGSLRISSAASGSIYFYNAMGWYRQAPGQERELVAAITTRGGSTYYADSVKGRFTISRDNAKNTVYLQMNSLKPEDTAVYYCARSSRGKLDYWGQGTQVTVSS | low polyreactivity |
| QDQHVESGGGLVQAGGSLRLSCAASGFTIRNYAMGWYRQAPGKVMELVPAISKRGGNTYYADSVKGRFSISRDNAKNNVYLQLNSLKPEDTAVYFCAADYQFSQDVWHFGYCGQGTQVTVSS | high polyreactivity |
| QDQHVESGGGLVQAGGSLRLSCAASGGTFVPYAMGWYRQAPGKERELVARISKRGGTTYYADSVKGRFTISRDIAKNTVYLQMNSLKPEDTAVYYCAAGLPARGYYWGQGTQVTVSS | high polyreactivity |
| QDQHVESGGGLVQAGGSLRLSCAASGLIFNNYAMGWYRQAPGKERELVAPISRTGTSTYYADSVKGRFTISRDNAKNTVYLQMNSLKPEDTAVFYCNAVIQLFEWGWDDEYDYWGQGTQVTVSS | low polyreactivity |
| QDQHVESGGGLVQAGGSLRLSCAASGSIFGYYARGWYRQAPGTETELVAAISKSGTRTYYADSVKGRFTISRDNAKNTVYVQMNSLKPEETAVYYCAARYYSRTTAMDYWGQGTQVTVSS | high polyreactivity |
| QDQHVESGGGLVQAGGSLRLSCAASGSTFAFYAMGWYRQAPGKERELVAAINYGGTSTYYADSVKGRFTISRDNAKNTVYLQMNSLKPEDTAVYYCAARRPTSPRRYESWGQGTQVTVSS | high polyreactivity |
| QDQHVESGGGLVQAGGSLRLSCAASGSTLLYYVMGWYRQAPGKERELVAAITGTGGRTYYADSVKGRFTISRDNAKNTVYLQMNSLKPEDTAVYYCAREWRTRIYYYWGQGTQVTVSS | low polyreactivity |
| QDQHVESGGGLVQAGGSLRLSCAASGTIFCYYAMGWYRQAPGKERGLVASISWNGTSTYYADSVKGRFTISRDNSKNTVYLQMNCLNPEDTAVYYCNVRFNYRGTYDYWGQGTQVTVSS | low polyreactivity |
| QDQHVESGGGLVQAGGSLRLSCAASGTTFSLYMGWNRQSPGKERKLVAAITYSGGRTYYADSVKGRFTISRDNAKNTVYLQMNSLKPEDTAVYYCGTVFNDLTVYEYWSRFDYWGQGTQVTVSS | low polyreactivity |
